Target: T1, Aeropyrum pernix aEF1α (residues 7-437), C-terminally His-tagged, wild type (Aeropyrum pernix, UniProt Q9YAV0 7-437)
T1 sequence: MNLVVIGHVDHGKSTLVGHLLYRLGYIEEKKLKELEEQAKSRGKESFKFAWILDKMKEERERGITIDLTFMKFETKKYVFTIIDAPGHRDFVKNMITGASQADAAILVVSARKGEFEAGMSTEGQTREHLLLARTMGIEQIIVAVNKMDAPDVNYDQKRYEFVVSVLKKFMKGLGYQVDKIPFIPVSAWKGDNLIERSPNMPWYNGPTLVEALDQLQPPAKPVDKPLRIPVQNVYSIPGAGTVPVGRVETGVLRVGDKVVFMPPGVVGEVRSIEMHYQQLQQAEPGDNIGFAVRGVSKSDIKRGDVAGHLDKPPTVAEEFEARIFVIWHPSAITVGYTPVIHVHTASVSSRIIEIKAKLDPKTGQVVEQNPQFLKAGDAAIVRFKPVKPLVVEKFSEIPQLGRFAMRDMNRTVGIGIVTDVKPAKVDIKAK
Experiment: pull-down

binding result: binds
B1: archaeal RF1 (aRF1), archaeal class I release factor, Aeropyrum pernix (natural protein)
chain: MSQGRLEERLTISKRELARLLKELKKWSAPATVLLSLYIPPGRPLSDVMTLLRQEYSITDNIKLKRTRQAVKRALSAAMDRLQMLTSTPPNGLVLFCGEDMSTGKFECFMFSPPEPIRVFYYRTDKRFITDFLEDMVEDNNAIGIIIVERDQATIGLLKGARLEVLKELEGFVPGKHKMGGQSQRRYERIIEQMVDEFFKKVGEEASNLLVPLAEKGVLKGVIVAGPGLAKQEFVEGNYLDYRLKKILAPELVDVAYQGLQGLKEAVMKAEKVVEAQMYRDAVNAMEEFKLHLAKGTGMIVYGEKDVEAALEMGAVKTLLIHESREDLEEWVEKAKSSGAQVIVVPESLAEAEWFLKTFGGLAGILRFRISTV

Reference: PMC3467058 (Nucleic Acids Research, 2012)
